T1: human wild-type Sema3A of SEQ ID NO: 600, expressed by HEK293 cells (human, UniProt Q14563 22-771, limits assumed)
T1 sequence: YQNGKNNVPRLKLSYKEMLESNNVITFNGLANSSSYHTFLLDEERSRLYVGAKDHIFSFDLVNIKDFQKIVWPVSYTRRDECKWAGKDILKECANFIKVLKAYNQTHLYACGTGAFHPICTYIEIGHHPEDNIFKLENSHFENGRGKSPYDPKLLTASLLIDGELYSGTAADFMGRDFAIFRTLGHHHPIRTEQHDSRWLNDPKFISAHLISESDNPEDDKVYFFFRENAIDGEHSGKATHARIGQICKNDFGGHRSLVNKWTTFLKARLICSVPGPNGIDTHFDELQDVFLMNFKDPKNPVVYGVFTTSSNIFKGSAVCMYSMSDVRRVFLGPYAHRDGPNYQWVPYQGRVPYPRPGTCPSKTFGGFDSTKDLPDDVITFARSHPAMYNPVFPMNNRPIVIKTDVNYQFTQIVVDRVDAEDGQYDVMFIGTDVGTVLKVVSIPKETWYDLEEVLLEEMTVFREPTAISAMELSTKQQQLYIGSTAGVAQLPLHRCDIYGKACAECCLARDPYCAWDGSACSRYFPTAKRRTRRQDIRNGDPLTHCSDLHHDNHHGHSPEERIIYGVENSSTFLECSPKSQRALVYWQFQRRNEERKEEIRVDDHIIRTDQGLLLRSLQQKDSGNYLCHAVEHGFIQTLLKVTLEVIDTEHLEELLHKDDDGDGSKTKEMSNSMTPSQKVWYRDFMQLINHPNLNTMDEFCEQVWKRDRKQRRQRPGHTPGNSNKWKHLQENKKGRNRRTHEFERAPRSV

T2: Pig Semaphorin3A-Sema Domain, TPP-20176 (pig, UniProt Q63548 21-569 (rat entry))
T2 construct: produced inhouse
T2 chain: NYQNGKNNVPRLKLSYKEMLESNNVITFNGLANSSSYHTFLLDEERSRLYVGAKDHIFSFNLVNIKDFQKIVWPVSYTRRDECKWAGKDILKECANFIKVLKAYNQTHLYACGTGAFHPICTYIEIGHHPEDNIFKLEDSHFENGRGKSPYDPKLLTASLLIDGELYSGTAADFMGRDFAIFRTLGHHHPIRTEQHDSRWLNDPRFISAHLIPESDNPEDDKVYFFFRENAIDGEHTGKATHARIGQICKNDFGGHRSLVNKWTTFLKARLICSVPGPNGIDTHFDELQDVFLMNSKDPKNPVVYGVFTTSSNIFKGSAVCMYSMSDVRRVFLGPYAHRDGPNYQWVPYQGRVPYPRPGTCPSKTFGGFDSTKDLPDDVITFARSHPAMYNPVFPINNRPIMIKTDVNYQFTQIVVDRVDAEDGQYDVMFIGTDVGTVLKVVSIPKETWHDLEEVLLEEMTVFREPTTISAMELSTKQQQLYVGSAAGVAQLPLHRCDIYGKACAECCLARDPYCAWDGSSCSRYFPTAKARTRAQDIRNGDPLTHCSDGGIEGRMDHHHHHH


Key:
[1] = biological target: Human Semaphorin3A-Fc (R&D Systems), TPP-13211 (human); experiment: cell-based or functional assay
[2] = biological target: T1, human wild-type Sema3A of SEQ ID NO: …; experiment: cell-based or functional assay
[3] = biological target: T1, human wild-type Sema3A of SEQ ID NO: …; experiment: cell-based or functional assay; remark: listed apart in the source
[4] = biological target: T2, Pig Semaphorin3A-Sema Domain, TPP-20176; experiment: SPR, captured antibody, Sema3A domain analyte
In short: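 Kinetics fitted to a 1:1 Langmuir model after double referencing; glycine pH 2.0 regeneration. Sema3A domain analytes (several species) ran at […]-3.125 nM multi-cycle or single 100 nM; Fc-tagged Sema3A at 1.56-200 nM over Fab-captured antibody, otherwise Fc capture. Buffer HBS P+ plus 300 mM NaCl, CaCl₂, MgCl₂, BSA, 25° C.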

Chain of Human Semaphorin3A-Fc (R&D Systems), TPP-13211 (human) (chain, as listed by the source limits assumed): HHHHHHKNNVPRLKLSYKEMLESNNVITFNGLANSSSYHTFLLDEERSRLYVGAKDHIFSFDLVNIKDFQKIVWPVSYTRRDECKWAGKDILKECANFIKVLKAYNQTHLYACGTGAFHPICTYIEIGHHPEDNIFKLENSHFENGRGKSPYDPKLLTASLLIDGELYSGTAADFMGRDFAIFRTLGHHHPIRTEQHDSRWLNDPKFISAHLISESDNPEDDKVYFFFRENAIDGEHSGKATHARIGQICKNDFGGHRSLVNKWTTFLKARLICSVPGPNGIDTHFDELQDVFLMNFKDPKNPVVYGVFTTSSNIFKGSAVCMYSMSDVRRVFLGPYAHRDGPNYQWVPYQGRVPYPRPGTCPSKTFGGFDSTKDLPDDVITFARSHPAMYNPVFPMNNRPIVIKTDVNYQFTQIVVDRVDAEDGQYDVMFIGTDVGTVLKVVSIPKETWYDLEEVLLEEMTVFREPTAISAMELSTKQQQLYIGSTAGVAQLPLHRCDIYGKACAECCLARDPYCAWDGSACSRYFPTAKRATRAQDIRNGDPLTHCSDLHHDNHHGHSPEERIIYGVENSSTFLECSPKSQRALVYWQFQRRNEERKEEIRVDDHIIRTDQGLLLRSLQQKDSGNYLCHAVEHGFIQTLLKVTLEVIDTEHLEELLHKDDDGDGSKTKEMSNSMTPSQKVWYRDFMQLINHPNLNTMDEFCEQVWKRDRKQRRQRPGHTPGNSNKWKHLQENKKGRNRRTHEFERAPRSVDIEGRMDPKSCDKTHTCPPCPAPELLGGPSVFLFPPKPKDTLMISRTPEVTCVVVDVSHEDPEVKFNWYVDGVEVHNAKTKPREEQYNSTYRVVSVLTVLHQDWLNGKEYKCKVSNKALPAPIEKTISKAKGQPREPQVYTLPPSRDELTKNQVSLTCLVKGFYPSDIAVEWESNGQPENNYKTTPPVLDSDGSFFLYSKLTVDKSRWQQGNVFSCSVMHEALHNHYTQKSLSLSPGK

Row | Binder | EC50 (nM), GCC assay [1] [nM] | EC50 (pM), HUVEC repulsion assay [2] [pM] | EC50 (pM), HUVEC repulsion assay, second experiment [3] [pM] | Kd [4] [nM]
1 | TPP-23298 (antibody, human IgG4 S228P, lambda, V domains shown) VH: EVQLLESGGGLVQPGGSLRLSCAASGFTFYSYAMSWVRQAPGKGLEWVSAIGTGGDTYYADSVKGRFTISRDNSKNTLYLQMNSLRAEDTAVYYCARRDDYTSRDAFDYWGQGTLVTVSS VL: not shown | 2.4 | 80 | 54 | 0.067
2 | TPP-11489 (antibody, human IgG1, lambda, human IgG1; also called Chiome; Chiome Prior Art (hIgG1)) heavy: not shown light: SYELTQPPSVSVSPGQTARITCSGGGSYTGSYYYGWYQQKPGQAPVTVIYYNNKRPSDIPERFSGSLSGTTNTLTISGVQAEDEADYYCGSADNSGDAFGTGTKVTVLGQPKAAPSVTLFPPSSEELQANKATLVCLISDFYPGAVTVAWKADSSPVKAGVETTTPSKQSNNKYAASSYLSLTPEQWKSHRSYSCQVTHEGSTVEKTVAPTECS | – | – | > 20000 | 100
3 | TPP-17755 (antibody, human IgG1, lambda, V domains shown, also called Samsung; Samsung Prior Art F11) VH: EVQLLESGGGLVQTGGSLRLSCAASGFTFSDYAMSWVRQAPGKGLEWVSWIYYDSGSKYYADSVKGRFTISRDNSKNTLYLQMNSLRAEDTAVYYCAKLNGDFDYWGQGTLVTVSS VL: QSVLTQPPSASGTPGQRVTISCSGSSSNIGNNDVSWYQQLPGTAPKLLIYADSHRPSGVPDRFSGSKSGTSASLAISGLRSEDEADYYCGAWDSSLSGYVFGGGTKLTVLG | 52.7 | – | 2790 | 4
